Key:
[1] = molecular target: T1, poly-histidine tagged HPTP-β extracellular domain (ECD) 1/2 (human, UniProt P23467 23-730, limits assumed); assay: Biacore SPR, full kinetics at 0-10 nM analyte; His-tagged HPTP-β 1/2 ECD captured by anti-His, antibody as analyte
T1 construct: domain: extracellular domain (ECD) 1/2; Captured on the Biacore chip through goat anti-His antibody; also called His-tagged ligand HPTP-β 1/2 ECD; not shown: poly-histidine tag
T1 sequence (looked up): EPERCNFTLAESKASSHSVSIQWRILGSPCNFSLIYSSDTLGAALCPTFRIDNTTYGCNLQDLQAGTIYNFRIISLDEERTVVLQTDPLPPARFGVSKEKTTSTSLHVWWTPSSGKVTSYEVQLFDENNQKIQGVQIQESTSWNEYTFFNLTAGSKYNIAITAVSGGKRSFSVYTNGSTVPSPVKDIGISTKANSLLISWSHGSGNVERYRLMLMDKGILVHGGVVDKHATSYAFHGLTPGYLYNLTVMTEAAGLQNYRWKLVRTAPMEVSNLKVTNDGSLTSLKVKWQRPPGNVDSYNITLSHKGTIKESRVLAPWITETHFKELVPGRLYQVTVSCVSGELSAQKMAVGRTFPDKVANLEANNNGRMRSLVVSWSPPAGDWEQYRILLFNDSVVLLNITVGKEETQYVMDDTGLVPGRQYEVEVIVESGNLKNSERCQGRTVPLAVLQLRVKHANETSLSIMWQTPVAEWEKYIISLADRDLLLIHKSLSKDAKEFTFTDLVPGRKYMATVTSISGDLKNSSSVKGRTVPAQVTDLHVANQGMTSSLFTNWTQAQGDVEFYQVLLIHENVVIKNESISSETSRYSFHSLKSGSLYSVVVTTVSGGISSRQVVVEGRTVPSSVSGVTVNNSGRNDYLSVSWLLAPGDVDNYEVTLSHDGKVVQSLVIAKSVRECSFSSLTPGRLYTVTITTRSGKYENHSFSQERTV
Experimental: (§1) The assay buffer contained 10 mM HEPES buffer (pH 7.4), 150 mM NaCl, 3 mM EDTA, and 0.05% P20 (polyoxyethylenesorbitan). […] The conjugation buffer contained 10 mM sodium acetate buffer (pH 5). A flow rate of 5 μL/minute was used for capturing ligand. A flow rate of 30 μL/minute was used for kinetic analysis.
(§2) For analysis of binding of antibodies to HPTP-β, poly-histidine tagged HPTP-β extracellular domain (ECD) 1/2 was immobilized on a chip surface via anti-His antibodies. Goat anti-His antibody was first immobilized on the surface of the chip by direct immobilization using EDC/NHS (N-ethyl-N′-(3-dimethyl aminopropyl carbodiimide)/N-hydroxy succinamide) coupling chemistry on flow cell 2 of the CM5 (Carboxymethylated dextran coated) chip. Unoccupied sites were blocked with 1M ethanolamine. The His-tagged ligand HPTP-β 1/2 ECD was captured at a response unit (RU) of 50. The analyte (antibody) was flowed over the chip at a single analyte concentration at a time. The binding of analyte to the ligand was monitored in real time to obtain on (kₐ) and off (kd) rates. The equilibrium constant (KD) was calculated from the observed kₐ and kd.
Chi square analysis was carried out between the actual sensorgram and the sensorgram generated from the BNAnalysis software to confirm the accuracy of the analysis; values of 1-2 were considered accurate and below 1 highly accurate.

VEGF = molecular target: T2, VEGF (UniProt P15692-4 27-191, limits assumed); assay: Biacore SPR, scouting; antibody immobilised on CM5 chip, VEGF as analyte
T2 construct: also called vascular endothelial growth factor
Experimental: For analysis of binding of the antibodies to VEGF, the antibodies were immobilized on the surface of the chip by direct immobilization using EDC/NHS coupling chemistry on flow cell 2 of the CM5 chip. Unoccupied sites were blocked with 1M ethanolamine. The analyte (VEGF) was flowed over the chip at a single analyte concentration at a time. The binding of analyte to the ligand was monitored in real time to obtain on (kₐ) and off (kd) rates. The equilibrium constant (KD) was calculated from the observed kₐ and kd.
(§3) Chi square analysis was carried out between the actual sensorgram and the sensorgram generated from the BIAnalysis software to confirm the accuracy of the analysis; values of 1-2 were considered accurate and below 1 highly accurate.

[2] = molecular target: T1, poly-histidine tagged HPTP-β …; assay: Biacore SPR, scouting at 10 nM analyte; His-tagged HPTP-β 1/2 ECD captured by anti-His, antibody as analyte
Experimental: as §1, §2, §3

T2 sequence (P15692 other isoform, or with tags, fused parts or gaps limits assumed): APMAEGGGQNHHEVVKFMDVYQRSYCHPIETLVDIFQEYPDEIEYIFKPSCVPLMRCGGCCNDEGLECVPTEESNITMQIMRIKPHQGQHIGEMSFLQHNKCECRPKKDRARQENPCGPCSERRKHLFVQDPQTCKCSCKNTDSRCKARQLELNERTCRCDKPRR

B1: HC2:LC1 (antibody, human IgG4 S228P, kappa, V domains shown)
VH: EVQLVESGGGLVQPGGSLRLSCAASGFTFNANAMNWVRQAPGKGLEWVGRIRTKSNNYATYYAGSVKDRFTISRDDSKNSLYLQMNSLKTEDTAVYYCVRDYYGSSAWITYWGQGTLVTVSS
VL: DVVMTQSPSFLSASVGDRVTITCKASQHVGTAVAWYQQRPGKAPKLLIYWASTRHTGVPSRFSGSGSGTEFTLTISSLQPEDFATYFCQQYSSYPFTFGGGTKLEIKR
notes: Human IgG4 (S228P) heavy chain HC2 (VH2) and human kappa light chain LC1 (VL1); also called humanized monoclonal antibody specific for HPTP-β
Kd [1]: 121 pM | binding result (VEGF): no binding (tested: 10 nM of analyte) | Kd [2]: 73.2 pM

Reference: US20240174740A1 (EYEPOINT PHARMACEUTICALS, published 2024)
